The data set concerns the molecule itself. Nature of the data set: SDS-PAGE of undigested full-length DIG-177 (self-association).

Description: SDS-PAGE was run following the protocol NuPAGE Bis-Tris gels from Invitrogen Life technologies (Protocol Pub. No. MAN0007894 Rev. A.0, Ref.2). Briefly, samples were mixed with denaturing sample buffer (Invitrogen) plus 5 mM DTT (for reducing PAGE) or minus DTT (for non reducing PAGE) and heated at 95° C. for 5 minutes. The samples were loaded onto Invitrogen Bis/Tris gel. The gel was run with MOPS or MES running buffer under 200 V for ˜43 minutes. The gel was stained with Coomassie blue staining solution (Bio-Rad) for 30 minutes and de-stained with de-staining solution (7% Acetic acid and 5% Methanol in water) until the background cleared.

B1: DIG-177 (full length wild type Cry6Aa) (other)
chain: MIIDSKTTLPRHSLIHTIKLNSNKKYGPGDMTNGNQFIISKQEWATIGAYIQTGLGLPVNEQQLRTHVNLSQDISIPSDFSQLYDVYCSDKTSAEWWNKNLYPLIIKSANDIASYGFKVAGDPSIKKDGYFKKLQDELDNIVDNNSDDDAIAKAIKDFKARCGILIKEAKQYEEAAKNIVTSLDQFLHGDQKKLEGVINIQKRLKEVQTALNQAHGESSPAHKELLEKVKNLKTTLERTIKAEQDLEKKVEYSFLLGPLLGFVVYEILENTAVQHIKNQIDEIKKQLDSAQHDLDRDVKIIGMLNSINTDIDNLYSQGQEAIKVFQKLQGIWATIGAQIENLRTTSLQEVQDSDDADEIQIELEDASDAWLVVAQEARDFTLNAYSTNSRQNLPINVISDSCNCSTTNMTSNQYSNPTTNMTSNQYMISHEYTSLPNNFMLSRNSNLEYKCPENNFMIYWYNNSDWYNNSDWYNN
notes: Recombinant, produced in Pseudomonas fluorescens (standard) or in maize cells (Western blots)
Take B1: the binding result is “binds”.

Values taken from patent US20200184403A1 (DOW AGROSCIENCES, published 2020).
